Experiments:
[1] = target: T1, human MSLN-FL-his protein (human, UniProt Q13421 296-580); assay: competitive ELISA on MSLN-FL-His; other antibody: NB148-88 (3.m6)
T1 construct: Made in HEK293E cells, purified on nickel column; also called hMSLN-FL-his; not shown: histidine tag

[2] = target: T1, human MSLN-FL-his protein; assay: competitive ELISA on MSLN-FL-His; other antibody: Tab142 (R1) (3.m16)
[3] = target: T1, human MSLN-FL-his protein; assay: competitive ELISA on MSLN-FL-His; other antibody: NB149-34 (3.m8)
[4] = target: T1, human MSLN-FL-his protein; assay: competitive ELISA on MSLN-FL-His; other antibody: NB148-35 (3.m4)
[5] = target: T2, human MSLN-R2-his protein (human, UniProt Q13421 391-486); assay: ELISA, antibody 0 nM (blank)
T2 construct: MSLN-R2 = Ser391-Asn486; also called hMSLN-R2-his; not shown: histidine tag
T2 sequence (Q13421 other isoform, or with tags, fused parts or gaps): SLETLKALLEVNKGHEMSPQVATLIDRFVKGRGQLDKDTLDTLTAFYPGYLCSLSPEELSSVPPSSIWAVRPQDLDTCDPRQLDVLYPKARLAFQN

[6] = target: T3, human MSLN-R3-his protein (human, UniProt Q13421 487-598); assay: ELISA, antibody 1 nM
T3 construct: MSLN-R3 = Met487-Ser598; also called hMSLN-R3-his; not shown: histidine tag
T3 sequence (Q13421 495-606): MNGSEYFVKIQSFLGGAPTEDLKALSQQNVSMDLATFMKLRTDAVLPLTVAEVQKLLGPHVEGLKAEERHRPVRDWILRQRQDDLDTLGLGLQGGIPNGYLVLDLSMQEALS

[7] = target: T1, human MSLN-FL-his protein; assay: competitive ELISA on MSLN-FL-His; other antibody: NB149-31 (3.m7)
[8] = target: T4, human MSLN-R3-3 polypeptide (purchased from GL Biochem, Cat. No. 406676) (human); assay: ELISA, antibody 1 nM
T4 construct: Printed as Val539-Val588; also called hMSLN-R3-3
T4 peptide: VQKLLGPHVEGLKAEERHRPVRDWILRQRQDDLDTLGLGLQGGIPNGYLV

[9] = target: T5, human MSLN-FL-his protein (human, UniProt Q13421 296-580); assay: ELISA, antibody 1 nM
T5 construct: also called hMSLN-FL-his; human MSLN full-length protein; not shown: histidine tag

[10] = target: T3, human MSLN-R3-his protein; assay: ELISA, antibody 1 nM; remark: listed apart in the source
[11] = target: T6, human MSLN-R1-his protein (human, UniProt Q13421 296-390); assay: ELISA, antibody 1 nM
T6 construct: MSLN-R1 = Glu296-Thr390; also called hMSLN-R1-his; not shown: histidine tag
T6 chain: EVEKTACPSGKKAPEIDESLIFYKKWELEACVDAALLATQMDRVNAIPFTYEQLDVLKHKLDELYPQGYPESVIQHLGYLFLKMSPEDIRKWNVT

[12] = target: T2, human MSLN-R2-his protein; assay: ELISA, antibody 1 nM
[13] = target: T3, human MSLN-R3-his protein; assay: ELISA, antibody 0.0001 nM

B1: Tab107 (YP3, hIgG1) (antibody, V domains shown)
VH: QEQLVESGGGLVQPGASLTLTCTASGIDFSRYYMCWVRQAPGKGLEGIACIYIGGSGSTYYASWAKGRFTISKASSTTVTLQMTSLTAADTATYFCARGTNLNYIFRLWGPGTLVTVSS
VL: DVVMTQTPSPVSAAVGGTVTIKCQASQSINNGLAWYQQKPGQPPRLLIYSASNLESGVPSRFKGSGSGTEFTLTISDLECDDAATYYCQCIWDGNSYVNAFGGGTEVVVRT
notes: also called YP3 human IgG1 antibody
Q: B1 was tested. Which inhibition rate [1] did it give?
A: The inhibition rate was 4%.

Q: And the inhibition rate [2]?
A: The inhibition rate was -9%.

Q: And the inhibition rate [3]?
A: The inhibition rate was -8%.

Q: And the inhibition rate [4]?
A: The inhibition rate was 26%.

Q: What about the OD450 nm [5] of the same binder?
A: The OD450 nm was 0.05.

Q: What about the OD450 nm [6] of the same binder?
A: Its OD450 nm is 0.05.

Q: What about the inhibition rate [7] of the same binder?
A: The inhibition rate was -10%.

Q: What about the OD450 nm [8] of the same binder?
A: Its OD450 nm is 0.07.

Q: What about the OD450 nm [9] of the same binder?
A: Its OD450 nm is 1.74.

Q: And the OD450 nm [10]?
A: Its OD450 nm is 0.05.

Q: And the OD450 nm [11]?
A: Its OD450 nm is 0.05.

Q: What about the OD450 nm [12] of the same binder?
A: The OD450 nm was 0.05.

Q: What about the OD450 nm [13] of the same binder?
A: Its OD450 nm is 0.05.

— US20240124563A1 (NANJING ZAIMING PHARMACEUTICAL, published 2024)
